Source: US20190300612A1 (ELANCO US, published 2019)

B1: Olaratumab (antibody, human IgG1, kappa)
heavy: not shown
light: not shown
notes: Fully human IgG1 monoclonal antibody; also called IMC-3G3; human Olaratumab
B2: K9-6N6.1 variant LC-S28A (clone 2A2) (antibody, V domains shown)
VH: QLQLQESGPGLVKPSETLSLTCTVSGGSINSSSYYWGWLRQSPGKGLEWIGSFFYTGSTYYNPSLRSRLTISVDTSKNQFSLMLSSVTAADTAVYYCARQSTYYYGSGNYYGWFDRWDQGTLVTVSS
VL: EIVLTQSPATLSLSPGERATLSCRASQAVSSYLAWYQQKPGQAPRLLIYDASNRATGIPARFSGSGSGTDFTLTISSLEPEDFAVYYCQQRSNWPPAFGQGTKVEIKR
B3: K9-6N6.1 (antibody)
heavy: QLQLQESGPGLVKPSETLSLTCTVSGGSINSSSYYWGWLRQSPGKGLEWIGSFFYTGSTYYNPSLRSRLTISVDTSKNQFSLMLSSVTAADTAVYYCARQSTYYYGSGNYYGWFDRWDQGTLVTVSSASTTAPSVFPLAPSCGSTSGSTVALACLVSGYFPEPVTVSWNSGSLTSGVHTFPSVLQSSGLYSLSSMVTVPSSRWPSETFTCNVAHPASKTKVDKPVPKRENGRVPRPPDCPKCPAPEMLGGPSVFIFPPKPKDTLLIARTPEVTCVVVDLDPEDPEVQISWFVDGKQMQTAKTQPREEQFNGTYRVVSVLPIGHQDWLKGKQFTCKVNNKALPSPIERTISKARGQAHQPSVYVLPPSREELSKNTVSLTCLIKDFFPPDIDVEWQSNGQQEPESKYRTTPPQLDEDGSYFLYSKLSVDKSRWQRGDTFICAVMHEALHNHYTQESLSHSPGK
light: EIVLTQSPATLSLSPGERATLSCRASQSVSSYLAWYQQKPGQAPRLLIYDASNRATGIPARFSGSGSGTDFTLTISSLEPEDFAVYYCQQRSNWPPAFGQGTKVEIKRNDAQPAVYLFQPSPDQLHTGSASVVCLLNSFYPKDINVKWKVDGVIQDTGIQESVTEQDKDSTYSLSSTLTMSSTEYLSHELYSCEITHKSLPSTLIKSFQRSECQRVD
notes: Olaratumab HCVR on canine IgB heavy constant region, Olaratumab LCVR on canine kappa constant region; also called parental K9-6N6.1; parent K9-6N6.1

Legend:
[1] = molecular target: T1, cPDGFRA extracellular domain (ECD)-Fc fusion protein (dog); test: comparison of the KD values of Table 1
T1 construct: extracellular domain; also called cPDGFRA-Fc; cPDGFRA-ECD-Xa-Fc

human PDGFRA-Fc = molecular target: T2, human PDGFRA-Fc (human, UniProt P16234 24-524, limits assumed); test: kinetic binding to PDGFRA-Fc, antibody 30 nM; method not named for Table 1
T2 construct: also called PDGFRA-Fc (Human); not shown: Fc
T2 sequence (P16234 24-524 limits assumed): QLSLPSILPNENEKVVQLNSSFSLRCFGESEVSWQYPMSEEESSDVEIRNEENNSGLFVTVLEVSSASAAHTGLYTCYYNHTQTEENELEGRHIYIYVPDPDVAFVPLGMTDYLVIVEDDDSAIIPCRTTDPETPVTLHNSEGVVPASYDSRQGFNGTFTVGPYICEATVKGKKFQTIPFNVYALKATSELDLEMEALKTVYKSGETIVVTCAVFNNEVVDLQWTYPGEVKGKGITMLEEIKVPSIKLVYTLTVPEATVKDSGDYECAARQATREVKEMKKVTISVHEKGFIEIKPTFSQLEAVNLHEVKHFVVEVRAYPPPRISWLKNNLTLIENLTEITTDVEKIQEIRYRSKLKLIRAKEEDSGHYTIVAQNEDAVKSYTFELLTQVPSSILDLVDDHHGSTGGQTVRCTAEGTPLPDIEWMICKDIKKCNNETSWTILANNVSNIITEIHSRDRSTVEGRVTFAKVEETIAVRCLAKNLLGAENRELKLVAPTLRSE

[2] = molecular target: T1, cPDGFRA extracellular domain (ECD)-Fc …; test: as above
[3] = molecular target: T3, canine platelet derived growth factor receptor alpha (cPDGFRA) (dog, UniProt A0A8I3NAN8 49-553, biotinylated (sites not given) in the blocking ELISA); test: blocking ELISA: antibody with biotinylated cPDGFRA on coated canine PDGFAA; parental IC50 divided by variant IC50; pool evaluation
T3 construct: The construct is not described; also called biotinylated-cPDGFRA

human PDGFRA = human PDGFRA (human, UniProt P16234 24-524, limits assumed); test: binding ELISA on coated human PDGFRA; parental EC50 divided by variant EC50; pool evaluation
Chain of human PDGFRA (P16234 24-524 limits assumed): as above

[4] = molecular target: T1, cPDGFRA extracellular domain (ECD)-Fc …; test: titration binding ELISA on coated cPDGFRA-Fc; parental EC50 divided by variant EC50; pool evaluation
[5] = molecular target: T1, cPDGFRA extracellular domain (ECD)-Fc …; test: binding ELISA on coated cPDGFRA-Fc; unit from paragraph 44
[6] = molecular target: T3, canine platelet derived growth factor …; test: blocking ELISA: antibody with biotinylated cPDGFRA on coated canine PDGFAA; unit from paragraph 44
[7] = molecular target: T1, cPDGFRA extracellular domain (ECD)-Fc …; test: SPR, BIAcore T200, cPDGFRA-ECD-Xa-Fc immobilized, antibody injected, 25 C
Experimental: The binding kinetics of selected K9-6N6.1 variants to cPDGFRA were measured using a BIAcore T200 instrument (BIAcore, Inc., Piscataway, N.J.). Briefly, a cPDGFRA extracellular domain (ECD)-Fc fusion protein was immobilized on a sensor chip and antibody was injected at various concentrations. Sensograms were obtained at each concentration and evaluated using the BIA Evaluation 3.0 program to determine rate constants. The affinity constant (KD) was calculated from the ratio of rate constants Koff/Kon. The evaluation was performed at 25° C.

Binder | fold lower affinity than Olaratumab binding to human PDGFRA [1] [fold] | Kd (human PDGFRA-Fc) [nM] | koff (human PDGFRA-Fc) [s⁻¹] | kon (human PDGFRA-Fc) [M⁻¹ s⁻¹] | Kd [2] [nM] | koff [2] [s⁻¹] | kon [2] [M⁻¹ s⁻¹] | cPDGFRA Blocking IC50 improvement (fold) over parental K9-6N6.1 [3] [fold] | Human PDGFRA Binding EC50 improvement (fold) over parental K9-6N6.1 (human PDGFRA) [fold] | cPDGFRA Binding EC50 improvement (fold) over parental K9-6N6.1 [4] [fold] | EC50 [5] [nM] | IC50 [6] [nM] | Improvement (fold) of KD over parent K9-6N6.1 [7] [fold] | Kd [7] [nM] | koff [7] [s⁻¹] | kon [7] [M⁻¹ s⁻¹]
B1 | ~10 | 0.307 | 0.000248 | 808000 | 3.44 | 0.00294 | 856000 | – | – | – | – | – | – | – | – | –
B2 | – | – | – | – | – | – | – | 13.4 | 1.83 | 1.43 | – | – | – | – | – | –
B3 | ~10 | – | – | – | 1.92 | 0.00161 | 840000 | – | – | – | 0.272 | 31.5 | 1 | 4.87 | 0.00247 | 508000
